Measurements from patent publication US8303957B2, “Mutated immunogenic peptides derived from R9M, polynucleotides coding for same and therapeutic uses thereof” (Institut Pasteur, priority 2000, dated 2012).
Values joined by “and” are separate entries in the source; they are usually repeats but may differ in a detail not shown here. Identical values can stand only once. “Also recorded” adds a separate entry of the source. Marks after values point to notes of the source that are not given here. Non-standard residues stand in square brackets, D forms with d. No end group written: not given here. Abu = CC[C@H](N)C(=O)O

Columns and labels:
HLA-A2.01 molecule [1] = target: T1, HLA-A2.01 molecule (Homo sapiens, UniProt P04439, D140Y/D185E/D98H/E176V/E277Q/G131W/G231S/I119V/I121R/I166T/I218V/L300P/L318F/N151K/N90K/P208A/P217A/Q86G/Q94H/R138H/R169H/T345S); test: Inhibition of binding of 125I-F10V (HBVc.18-27) to soluble HLA-A2.01 molecules
T1 construct: stability conferred on the peptide MHC complex thus formed at the cell surface by using tap T2 cells expressing HLA-A*02.01; endogenous in cells; host or cells: T2 cells
Description: The product of the chimeric genes resulting from the translocation (12;21) is a neoprotein which is expressed in the leukemic cells of common B-ALL type and which can be detected by Western blot. […] In a first step, the capacity of 9 junctional nonapeptides to inhibit the binding to soluble HLA-A*0201 was measured.

HLA-A2.01 molecule [2] = target: T1, HLA-A2.01 molecule; test: Stabilization of HLA-A2.01 molecules at the surface of T2 cells (RA and DC50); type: binding; details: for Measurement of stabilization DC50 (half-life of peptide-HLA-A2.1 stabilized complexes): overnight incubation, indirect immunofluorescence/FACS at 0, 2, 4 and 5 h; for Measurement of stabilization RA: ratio of concentrations of tested versus reference peptide to attain 20% of maximal number of stabilized molecules
Excerpt: A person well-acquainted with the field of the invention will know how to obtain different mutated and derived peptides and will also know how to determine which of all of the peptides obtained are the peptides having adequate biological activity. […] The term DC50 characterizing the half-life of the peptide HLA-A2.01 complex is described in the publication “H-2 class 1 knockout, HLA-A2.1-transgenic mice: a versatile animal model for preclinical evaluation of antitumor immunotherapeutic strategies” (European Journal of Immunology: 29:3112-21, 1999). This half-life ought normally to make it capable of inducing in vivo or in vitro a cytotoxic immune response. Preferably, the peptide obtained will slow down the growth of lymphoblastic tumor cells when administered to a leukemic receiver and will trigger a cytotoxic T response to the leukemic cells of common type B-ALL with t(12;21) of the leukemic receiver.
It is known that the affinity of an epitopic peptide for the MHC predicts in part its immunogenic potential. This affinity can be measured by its binding capacity to class I MHC and by the stability conferred on the peptide MHC complex thus formed at the cell surface by using tap T2 cells expressing HLA-A*02.01.
These preliminary results have subsequently been used to optimize further the R9M peptide. […] The binding tests performed in vitro by using the soluble HLA-A2.01 molecules and T2 cells have shown that the binding to and the stabilization capacity for the HLA-A2.01 molecules was greater than that of the wildtype R9M peptide (Table 2).

[3] = tested on: RMAS-HHD cells stimulated with the wildtype peptide; test: Secondary CTL response of immunized HHD mice against RMAS-HHD cells stimulated with the wildtype peptide; type: in vivo; details: responder = at least 10% specific lysis, targets with wildtype peptide
Excerpt: (§1) The immunogenicity of the mutated peptides was then studied in the HHD transgenic mouse (H2 class 1—negative and transgenic for HLA-A*02.01). These mice are described in European Journal of Immunology, 29:3112-21, 1999. Groups of more than 10 HHD mice were immunized by the synthetic peptides (emulsion in IFA with the helper peptide HBVcore128-140 as described previously in Firat et al., Eur. J. Immunol. 29:3112-21 (1999)).
(§2) On the other hand, the mutated peptides (having single or double substitutions) induce a strong CTL activity and lyse the TEL AML* tumor lines in the majority of cases (Table 3 and Table 4). The enhanced immunogenicity of the mutated R9M peptides was then confirmed in vitro by using mononucleated cells of 5 healthy HLA-A*02.01 subjects (FIG. 2).

[4] = tested on: RMAS-HHD cells stimulated with the mutated peptide; test: Tertiary CTL response of immunized HHD mice against RMAS-HHD cells stimulated with the mutated peptide; type: in vivo; details: for R/T (mice responders versus total of mice tested): responder = at least 10% specific lysis, targets with mutated peptide
Excerpt: as §1, §2

[5] = tested on: EL4 S3-Rob-HHD cells expressing the TEL/AML1 fusion protein; test: Tumor model in HHD mice immunized with peptide and injected with tumor cells; details: groups of 8 HHD mice immunized beforehand; for development of tumors (in words): FIG. 3; for survival of the mice (in words): FIG. 4
[6] = tested on: RMAS-HHD cells stimulated with the mutated peptide; test: Secondary CTL response of immunized HHD mice against RMAS-HHD cells stimulated with the mutated peptide; type: in vivo; details: for R/T (mice responders versus total of mice tested): responder = at least 10% specific lysis
Excerpt: as §1, §2

TEL/AML+ EL4-HHD cells = test: Tertiary CTL response of immunized HHD mice against TEL/AML+ EL4-HHD cells; type: in vivo; details: responder = at least 10% specific lysis, TEL/AML+ EL4-HHD targets
Excerpt: as §1, §2

HLA-A2.1*T2 target cells = details: results in the public domain; cited from earlier work
[7] = secondary response, targets with mutated peptide

In the case of AMPIGRIAE [A9E], the “percentage inhibition of the binding of F10V, ratio peptide/125I-F10V 10/1” value (HLA-A2.01 molecule [1]) is reported as 47^d %, the “percentage inhibition of the binding of F10V, ratio peptide/125I-F10V 25/1” value (HLA-A2.01 molecule [1]) is reported as 57% and the “Measurement of stabilization DC50 (half-life of peptide-HLA-A2.1 stabilized complexes)” value (shortened to “Measurement of stabilization DC50”) (HLA-A2.01 molecule [2]) is reported as 2 to 4 h. The “Measurement of stabilization RA” value (HLA-A2.01 molecule [2]) was 10-100.

For “ILKEPVHGV [HIV 1 rt.476, reference compound]”, the “Measurement of stabilization DC50” value (HLA-A2.01 molecule [2]) was 5 h and the “Measurement of stabilization RA” value (HLA-A2.01 molecule [2]) was 1.

In the case of PIGRIAECI [P91], the “Measurement of stabilization DC50” value (HLA-A2.01 molecule [2]) is reported as 0 h and the “Measurement of stabilization RA” value (HLA-A2.01 molecule [2]) is reported as >100.

In the case of RIAEAILGM [R9M-5A], the “percentage inhibition of the binding of F10V, ratio peptide/125I-F10V 10/1” value (HLA-A2.01 molecule [1]) is reported as 59%, the “percentage inhibition of the binding of F10V, ratio peptide/125I-F10V 25/1” value (HLA-A2.01 molecule [1]) is reported as 72% and the “R/T (mice responders versus total of mice tested)” value [3] is reported as 2/10. For the same substance, the “% of clear lysis (maximal lysis for each mouse responder)” value ([4]; E/T ratio 60:1, targets with mutated peptide) was “(20) %”, the “R/T (mice responders versus total of mice tested)” value [4] was 1/10 and the “Measurement of stabilization DC50” value (HLA-A2.01 molecule [2]) was <2 h. The “Measurement of stabilization RA” value (HLA-A2.01 molecule [2]) was 3.2, the “development of tumors (in words)” value [5] was “capable of slowing down the development of tumors” and the “survival of the mice (in words)” value [5] was “prolonging the survival of the mice”. For the same substance, the “R/T (mice responders versus total of mice tested)” value [6, 7] was 2/10 and the “R/T (mice responders versus total of mice tested)” value (TEL/AML+ EL4-HHD cells) was 6/10.

For “RIAECILGM (listed as Homo sapiens) [R9M, reference compound]”, the “percentage inhibition of the binding of F10V, ratio peptide/125I-F10V 10/1” value (HLA-A2.01 molecule [1]) was 64%, the “percentage inhibition of the binding of F10V, ratio peptide/125I-F10V 25/1” value (HLA-A2.01 molecule [1]) was 69% and the “R/T (mice responders versus total of mice tested)” value [4] was 2/10. The “stability of the peptide/HLA-A2.01 complex at the surface of T2 cells (in words)” value (HLA-A2.01 molecule [2]) was “quite unstable; also recorded: not very stable”, the “Measurement of stabilization DC50” value (HLA-A2.01 molecule [2]) was <2 h and the “Measurement of stabilization RA” value (HLA-A2.01 molecule [2]) was 2.9. The “capacity to induce CTLs from the peripheral blood of healthy donors (in words)” value (HLA-A2.1*T2 target cells) was “has been demonstrated”, the “% of clear lysis (maximal lysis for each mouse responder)” value ([6]; secondary response, E/T ratio 60:1, targets with mutated peptide) was “(13) %” and the “R/T (mice responders versus total of mice tested)” value [6, 7] was 1/18. For the same substance, the “CTL response induced in immunized HLA-A2.01 transgenic (HHD) mice (in words)” value ([6]; synthetic peptide in IFA with helper peptide HBVcore128-140) was “inconstancy and the weakness of the CTL responses induced; also recorded: inconstancy and weakness of the CTL responses induced; also recorded: weak specific CTL response” and the “R/T (mice responders versus total of mice tested)” value (TEL/AML+ EL4-HHD cells) was 5/10.

In the case of RIAESILGM [R9M-5S], the “percentage inhibition of the binding of F10V, ratio peptide/125I-F10V 10/1” value (HLA-A2.01 molecule [1]) is reported as 74%, the “percentage inhibition of the binding of F10V, ratio peptide/125I-F10V 25/1” value (HLA-A2.01 molecule [1]) is reported as 75% and the “R/T (mice responders versus total of mice tested)” value [3] is reported as 6/14. The “R/T (mice responders versus total of mice tested)” value [4] was 6/10, the “Measurement of stabilization DC50” value (HLA-A2.01 molecule [2]) was 2 h and the “Measurement of stabilization RA” value (HLA-A2.01 molecule [2]) was 2.2. For the same substance, the “development of tumors (in words)” value [5] was “capable of slowing down the development of tumors”, the “survival of the mice (in words)” value [5] was “prolonging the survival of the mice” and the “R/T (mice responders versus total of mice tested)” value [6, 7] was 11/14. For the same substance, the “R/T (mice responders versus total of mice tested)” value (TEL/AML+ EL4-HHD cells) was 11/14.

In the case of “RIAEα-butILGM (RIAE[Abu]ILGM) [R9M-5α-but]”, the “percentage inhibition of the binding of F10V, ratio peptide/125I-F10V 10/1” value (HLA-A2.01 molecule [1]) is reported as 27%, the “percentage inhibition of the binding of F10V, ratio peptide/125I-F10V 25/1” value (HLA-A2.01 molecule [1]) is reported as 49% and the “R/T (mice responders versus total of mice tested)” value ([3]; listed as R9M-5a-but) is reported as 5/10 and 8/10. For the same substance, the “R/T (mice responders versus total of mice tested)” value [4] was 8/10, the “Measurement of stabilization DC50” value (HLA-A2.01 molecule [2]) was 2 h and the “Measurement of stabilization RA” value (HLA-A2.01 molecule [2]) was 2. The “development of tumors (in words)” value [5] was “capable of slowing down the development of tumors”, the “survival of the mice (in words)” value [5] was “prolonging the survival of the mice” and the “R/T (mice responders versus total of mice tested)” value ([6]; secondary response, targets with mutated peptide, listed as R9M-5a-but) was 7/10 and 8/10. The “R/T (mice responders versus total of mice tested)” value (TEL/AML+ EL4-HHD cells; listed as R9M-5a-but) was 7/10 and 10/10.

In the case of YIAEAILGM [Y9M-5A], the “percentage inhibition of the binding of F10V, ratio peptide/125I-F10V 10/1” value (HLA-A2.01 molecule [1]) is reported as 79%, the “percentage inhibition of the binding of F10V, ratio peptide/125I-F10V 25/1” value (HLA-A2.01 molecule [1]) is reported as 87% and the “R/T (mice responders versus total of mice tested)” value [3] is reported as 7/10. The “R/T (mice responders versus total of mice tested)” value [4] was 9/10, the “Measurement of stabilization DC50” value (HLA-A2.01 molecule [2]) was 2 to 5 h and the “Measurement of stabilization RA” value (HLA-A2.01 molecule [2]) was 0.9. The “R/T (mice responders versus total of mice tested)” value [6, 7] was 8/10 and the “R/T (mice responders versus total of mice tested)” value (TEL/AML+ EL4-HHD cells) was 5/10.

In the case of YIAECILGM [Y9M], the “Measurement of stabilization DC50” value (HLA-A2.01 molecule [2]) is reported as <2 h and the “Measurement of stabilization RA” value (HLA-A2.01 molecule [2]) is reported as >100.

For YIAESILGM [Y9M-5S], the “percentage inhibition of the binding of F10V, ratio peptide/125I-F10V 10/1” value (HLA-A2.01 molecule [1]) was 25%, the “percentage inhibition of the binding of F10V, ratio peptide/125I-F10V 25/1” value (HLA-A2.01 molecule [1]) was 37% and the “R/T (mice responders versus total of mice tested)” value [3] was 3/10. For the same substance, the “R/T (mice responders versus total of mice tested)” value [4] was 9/10, the “Measurement of stabilization DC50” value (HLA-A2.01 molecule [2]) was 2 to 5 h and the “Measurement of stabilization RA” value (HLA-A2.01 molecule [2]) was 1.4. For the same substance, the “R/T (mice responders versus total of mice tested)” value [6, 7] was 9/10 and the “R/T (mice responders versus total of mice tested)” value (TEL/AML+ EL4-HHD cells) was 6/10.

In the case of “YIAEα-butILGM (YIAE[Abu]ILGM) [Y9M-5α-but]”, the “percentage inhibition of the binding of F10V, ratio peptide/125I-F10V 10/1” value (HLA-A2.01 molecule [1]) is reported as 26%, the “percentage inhibition of the binding of F10V, ratio peptide/125I-F10V 25/1” value (HLA-A2.01 molecule [1]) is reported as 26% and the “Measurement of stabilization DC50” value (HLA-A2.01 molecule [2]) is reported as 2 to 5 h. For the same substance, the “Measurement of stabilization RA” value (HLA-A2.01 molecule [2]) was 0.7.

With YIGRIAECI [Y9I] the “Measurement of stabilization DC50” value (HLA-A2.01 molecule [2]) was <2 h and the “Measurement of stabilization RA” value (HLA-A2.01 molecule [2]) was >100.

With YMPIGRIAE [Y9E] the “Measurement of stabilization DC50” value (HLA-A2.01 molecule [2]) was 0 h and the “Measurement of stabilization RA” value (HLA-A2.01 molecule [2]) was >100.
